Data on two molecules can be found in US20170275376A1 (Chugai, published 2017).

One assay addresses T1, anti-FX-arm of ACE910.
T1 construct: This is inferred from the parallel order 'anti-FIXa/FX' and 'Q499-z121/J327-z119' and from the AQ/AJ antibody names; also called anti-FX side; anti-FX-F(ab')2
Kind of assay: ELISA, hybridoma culture supernatant. The method, then:
(§1) Mice and rats were immunized with anti-FIXa-F(ab′)2 or anti-FX-F(ab′)2. Cells obtained from the spleen removed from the mice or rats or from rat lymph nodes were subjected to cell fusion with mouse myeloma cells by following general methods to produce the hybridomas. The culture supernatants of the hybridomas were evaluated by ELISA which detects the binding of ACE910 to the anti-FIXa-arm or the anti-FX-arm, and ultimately, mouse antibodies, AQ8 and AQ1, and rat antibody, AQ512, which bind only to the anti-FIXa-arm but not to the anti-FX-arm of ACE910, and rat antibodies, AJ540, AJ114, AJ521, AJ522, and AJ541, which bind only to the anti-FX-arm but not to the anti-FIXa-arm of ACE910 were selected. In addition, the nucleotide sequences of the variable regions of the AQ8 antibody or the AJ540 antibody were analyzed. The nucleotide sequences of the variable regions of AQ8 and AJ540, and amino acid sequences predicted therefrom were analyzed using GENETYX Ver.9 (GENETYX CORPORATION).
(In general: In an ELISA, binding on a coated surface is turned into a signal by an enzyme label.)

The target in a further assay is T2, anti-FIXa-arm of ACE910.
T2 construct: This is inferred from the parallel order 'anti-FIXa/FX' and 'Q499-z121/J327-z119' and from the AQ/AJ antibody names; also called anti-FIXa side; anti-FIXa-F(ab')2
T2 sequence (VH, as listed by the source, chain 1 of 2): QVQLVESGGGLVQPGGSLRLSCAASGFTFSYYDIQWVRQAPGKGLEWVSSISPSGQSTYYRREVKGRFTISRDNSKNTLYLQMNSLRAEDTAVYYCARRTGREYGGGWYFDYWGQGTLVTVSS
T2 sequence (VL, as listed by the source, chain 2 of 2): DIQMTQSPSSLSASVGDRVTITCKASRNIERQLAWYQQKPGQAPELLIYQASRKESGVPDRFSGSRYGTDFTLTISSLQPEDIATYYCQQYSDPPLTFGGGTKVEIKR
Kind of assay: ELISA, hybridoma culture supernatant. On the procedure:
as §1

T1 sequence (VH, as listed by the source, chain 1 of 2): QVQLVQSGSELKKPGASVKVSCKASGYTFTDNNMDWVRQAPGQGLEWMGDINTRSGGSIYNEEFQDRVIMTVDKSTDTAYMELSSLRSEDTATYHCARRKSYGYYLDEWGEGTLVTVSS
T1 sequence (VL, as listed by the source, chain 2 of 2): as the sequence (VL, as listed by the source, chain 2 of 2) above

B1: mouse antibody AQ8 (antibody, V domains shown)
VH: EVNLVESGGGLVQPGGSMSLSCAASGFTFTDYYMSWVRQPPGKALEWLALIRNKANGYTTEYSASVKGRFTISRDNSQSILYLQMNALRAEDSATYYCARDSYYSYDGYAMDYWGQGTSVTVSS
VL: DIQMTQSPASLAASVGETITITCQASENIYFSLAWYQQKQGKSPQLLIYNTDSLKDGVPSRFSGSGSGTQYSMKINSMQPEDTATYFCRQSYDFPWTFGGGTKLEIK
notes: Mouse hybridoma antibody, tested as culture supernatant in ELISA; also called AQ8 antibody
As to B1, the binding result in the assay with anti-FX-arm of ACE910 was “no binding”.

B2: rat antibody AJ540 (antibody, V domains shown)
VH: QIQLVQSGPELKKPGESVKISCKASGYTFTDYAMHWVKQVPGKGLKWMGWINTYTGKPTYADDFKGRFVFSLEASASTANLQISNLKNEDTANVFCAREGGGYYWYFDFWGPGTMVTVSS
VL: DIVMTQSPTSMSISVGDRVTMNCKANQNVDFNVDWYQQKTGQSPKLLIYKASNRYTGVPDRFTGSGSGTDFTFTISNMQAEDLAVYYCMQSNSFPLTFGSGTNLEIK
notes: Rat hybridoma antibody, tested as culture supernatant in ELISA; also called AJ540 antibody
Consider B2, for which, in the assay with anti-FIXa-arm of ACE910, the binding result is listed as “no binding”.
